Test results: publication PMC2811000

Assays:
[1] = molecular target: acrylodan-labeled FHA domain of PNKP (human) (UniProt Q96T60); assay: other fluorescence titration
[2] = molecular target: acrylodan-labeled C-terminal catalytic kinase/phosphatase domain of PNKP (human); assay: other fluorescence titration

AC fluorescence quenching [1] [%]	Kd [1] [nM]	stoichiometry N [1]	AC fluorescence quenching [2] [%]	Kd [2] [nM]	Substance
50	3.5	1.08	8		CK2-phosphorylated XRCC1 (from UniProt P18887 1-633) (natural protein)
				43	non-phosphorylated XRCC1 (from UniProt P18887 1-633) (natural protein)
